In paper PMC10796598:

Molecular target: synaptobrevin2 (syb2) All ItoA (rat) (UniProt P63045)

- mean open-state dwell time (<t (o-obs)>) of single fusion pores, ND5S(All ItoA) on t-SNARE BLM: 36 ms
Substance: synaptobrevin2 (syb2) All ItoA (from UniProt P63045 1-116) (natural protein)
